A short description of the data set: protein stability index of a GFP-peptide fusion (GPS, HEK-293T) (PSI 1-6); higher = more stable.
Setting [1] is: treatment: DMSO, c terminus: a fixed tail appended.
[2] abbreviates: treatment: MLN4924 1 uM, 8 h, c terminus: a fixed tail appended.
The mark [3] stands for this setting: treatment: DMSO, c terminus: native.
Setting [4] is: treatment: MLN4924 1 uM, 8 h, c terminus: native.

± gives the standard deviation.
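Note: 24-mer peptide tiles fused after GFP, lentivirally expressed, FACS-sorted into six equal bins by GFP/DsRed ratio, decoded by Illumina sequencing, PSI is the read-weighted mean bin number.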

Take SLERGTALFAQVQRGALPAPDPEL [RSAD1]: the protein stability index by setting is: under setting [1], 4.18 ± 0.45; under setting [2], 4.41 ± 0.38.

As for LPLETARESPSFKLEPMETERSPG [ZNF263], the protein stability index by setting is: under setting [1], 5.24 ± 0.13; under setting [2], 5.36 ± 0.13.

In the case of NSDQTTCRIQDLCAMEDHNCEQLC [MATN2], the protein stability index runs as follows: under setting [1], 4.04 ± 0.29; under setting [2], 4.05 ± 0.23.

Regarding RILVGNRLHLAFKRQVPTEQARAY [RAB40C], the protein stability index by setting is: under setting [1], 2.29 ± 0.26; under setting [2], 2.56 ± 0.27.

For the sequence NHANGLTLVSRAHQLVMEGYNWCH [PPP2CA], the protein stability index amounted to 2.6 ± 0.16 under setting [1] and 2.49 ± 0.29 under setting [2].

Under setting [2], TEIANCSLKVKFFDLERENACATK [PLD5] had a protein stability index of 3.92 ± 0.4.

For QALLKENRLLQEENRTLQVLRAEH [CBY2], the protein stability index runs as follows: under setting [1], 4.02 ± 0.2; under setting [2], 4.2 ± 0.065.

In the case of HQRFLREGRFWKSKNEDRGEEEAE [ZMYND11], the protein stability index runs as follows: under setting [1], 4.94 ± 0.21; under setting [2], 5.27 ± 0.2.

For QPCFFQDISMEIPQEFQKTVSTMY [SCAMP3], the protein stability index by setting is: under setting [1], 2.55 ± 0.4; under setting [2], 2.64 ± 0.23.

As for KIREKEEWIKLDYHRRHNPKTNED [IQUB], the protein stability index reads like this: under setting [1], 4.23 ± 0.28; under setting [2], 4.74 ± 0.13.

Turning to LAELQEQLKAVHEQLAALSQAPVN [BRD3], the protein stability index by setting is: under setting [1], 4.2 ± 0.3; under setting [2], 4.24 ± 0.43.

For the sequence QDIENALSTSSSPSGTPTNLRRHV [DLC1], the protein stability index was found to be 4.96 ± 0.17 under setting [1] and 4.94 ± 0.2 under setting [2].

The sequence AEVQAKLENAEVLELTVRRVQGVL [HES6] showed a protein stability index under setting [1] of 2.71 ± 0.38 and a protein stability index under setting [2] of 2.58 ± 0.25.

Turning to VNPWKREVKLLLSSETPIEGKNMS [APMAP], the protein stability index was 3.44 ± 0.25 under setting [1] and 3.62 ± 0.42 under setting [2].

For RTPEPLEEFPKREDQEGSPPETSL [MYBL2], the protein stability index was 5.4 ± 0.36 under setting [1] and 5.56 ± 0.23 under setting [2].

In the case of EQYERNKSSSSSSSSSSSSSSSSS [TMEM40], the protein stability index runs as follows: under setting [1], 5.46 ± 0.32; under setting [2], 5.49 ± 0.27.

FPEALDELPLPPFLQPLDLTGKG [ANKRD9]: the protein stability index is 3.43 ± 0.22 under setting [3] and 3.52 ± 0.12 under setting [4].

THRDRPSQQQPLRNQVVSSTNGEL [CSNK1G1]: the protein stability index was determined as 4.93 ± 0.33 under setting [1] and 4.71 ± 0.36 under setting [2].

Consider SAAGPPLSEDDKLQGAASHVPEGF [EHMT1], for which the protein stability index runs as follows: under setting [1], 5.31 ± 0.3; under setting [2], 5.21 ± 0.11.

Regarding PEAAVLFRQMATALAHCHQHGLVL [TRIB3], the protein stability index is 2.92 ± 0.55 under setting [1] and 2.88 ± 0.48 under setting [2].

Turning to IELNGGQPPLTYKRFQTLISKMEP [CRY1], the protein stability index was 2.53 ± 0.3 under setting [1] and 2.51 ± 0.16 under setting [2].

In the case of GPSLVPGKTPTVRAALICLTLVLV [CD207], the protein stability index under setting [1] is 2.28 ± 0.44 and the protein stability index under setting [2] amounted to 2.73 ± 0.62.

For FAYKDEYEKFKLYLTIILILISFT [TMEM120A], the protein stability index came out at 2.83 ± 0.35 under setting [1] and 2.46 ± 0.52 under setting [2].

In the case of KAFRSDSSFNFFVFFFIFFVQDVL [SCAMP3], the protein stability index was found to be 3.36 ± 0.43 under setting [1] and 3.25 ± 0.17 under setting [2].

As for AVCLLGVGTMVGADILAGREDNSG [SLC35F2], the protein stability index by setting is: under setting [1], 3.17 ± 0.5; under setting [2], 3.11 ± 0.2.

Take LYVRRVFIMDSCDELIPEYLNFIR [HSP90AB1]: the protein stability index by setting is: under setting [1], 2.37 ± 0.58; under setting [2], 2.68 ± 0.86.

For the sequence AKQLQAVKRKIRDESLCPQHHEAL [TRIM39], the protein stability index came to 3.99 ± 0.2 under setting [1] and 3.97 ± 0.19 under setting [2].

Turning to KKIQVNSKPSIQPKPLLLPAAPKT [ATF6], the protein stability index was found to be 4.18 ± 0.17 under setting [1] and 4.221 ± 0.027 under setting [2].

As to QLSPNKHFSLRVQSRANGVKYPEL [PCDHGA10], the protein stability index turned out to be 3 ± 0.18 under setting [1] and 3.02 ± 0.23 under setting [2].

Take IDPRNGIPKLTPGDNPYMYPEQSK [SPATS1]: the protein stability index reads like this: under setting [1], 4.58 ± 0.13; under setting [2], 4.5 ± 0.18.

CYMATTKSQTACLPFVLAAAVSRK [EHMT1]: the protein stability index is 2.14 ± 0.3 under setting [1] and 2.15 ± 0.15 under setting [2].

Regarding GLCKQDGQLRVFGAGLLSSISELK [TPH1], the protein stability index is 2.05 ± 0.28 under setting [1] and 2.39 ± 0.4 under setting [2].

Take RYEPLPPSLPAAGEQDCCGERVVI [KCNA3]: the protein stability index is, setting by setting: under setting [1], 4.04 ± 0.16; under setting [2], 4.08 ± 0.34.

For the sequence DGVEVDDSYCDALTRPEPVHEFCA [ADAMTSL2], the protein stability index under setting [1] came to 4.57 ± 0.23 and the protein stability index under setting [2] turned out to be 4.86 ± 0.24.

Sequence SQFHSVRPQGPQLRQQQHKQNKQV [DNAJC4] yielded a protein stability index under setting [1] of 4.85 ± 0.12 and a protein stability index under setting [2] of 4.87 ± 0.13.

On to QVADVPEKPRVPAFACQVAGCCQV [ZNF511], for which the protein stability index reads like this: under setting [1], 3.44 ± 0.16; under setting [2], 3.61 ± 0.35.

As for ETRQKKLEVAMEEEGLADEEKKLR [STK38L], the protein stability index runs as follows: under setting [1], 5.51 ± 0.18; under setting [2], 5.6 ± 0.21.

QKGLGGAMVWALDLDDFAGFSCNQ [CHIT1]: the protein stability index reads like this: under setting [1], 2.31 ± 0.32; under setting [2], 2.42 ± 0.16.

As to DNAPVFTLPEYRVSVPENLPVGTQ [PCDHGA10], the protein stability index is 4.54 ± 0.17 under setting [1] and 4.45 ± 0.26 under setting [2].

As to RFCLVPSMEGVRWAFSCGTWLPSR [AASDHPPT], the protein stability index is, setting by setting: under setting [1], 2.48 ± 0.79; under setting [2], 2.32 ± 0.056.

On to EHERAHRGEKPHGCSLCGKAFYKR [ZNF649], for which the protein stability index is, setting by setting: under setting [1], 2.79 ± 0.11; under setting [2], 3.45 ± 0.59.

Consider SQQQPLRNQVVSSTNGELNVDDPT [CSNK1G1], for which the protein stability index came out at 5.36 ± 0.24 under setting [1] and 5.27 ± 0.2 under setting [2].

Turning to EHTGEVRTARALLDRDALKQSLVV [PCDHGA10], the protein stability index was 3.23 ± 0.2 under setting [1] and 3.3 ± 0.26 under setting [2].

SLLAGTADGSLRMDDPKGDFITLY [M1AP] returned a protein stability index under setting [1] of 2.51 ± 0.22 and a protein stability index under setting [2] of 2.44 ± 0.52.

Take TYHVGKQCFFNGVFLGNKRSLSER [SPATS1]: the protein stability index runs as follows: under setting [1], 2.36 ± 0.21; under setting [2], 2.59 ± 0.22.

Regarding SALSDTEIQREIGISNALHRLKLR [PPFIA4], the protein stability index was found to be 4.2 ± 0.27 under setting [1] and 4.17 ± 0.25 under setting [2].

Take CMKIPTGQEYAAKIINTKKLSARD [CAMK2D]: the protein stability index under setting [1] turned out to be 3.7 ± 0.69 and the protein stability index under setting [2] was 3.83 ± 0.42.

Consider SGPEEPLLEEEEKQWGPLEREPVR [RTN2], for which the protein stability index is, setting by setting: under setting [1], 5.51 ± 0.21; under setting [2], 5.47 ± 0.34.

Regarding ESVEGVVRILLEHYYKENDPSVRL [INTS4], the protein stability index under setting [1] came to 2.22 ± 0.46 and the protein stability index under setting [2] stood at 2.46 ± 0.16.

Turning to LFPNAKKEHVPTWLQNTHVYSWPK [TRAF3IP2], the protein stability index by setting is: under setting [1], 2.8 ± 0.33; under setting [2], 2.81 ± 0.19.

The sequence EKRGFTSHFVFVIEVKTKGGSKYL [NCF4] gave a protein stability index under setting [1] of 3.02 ± 1.1 and a protein stability index under setting [2] of 3.64 ± 1.1.

As for VAAETGHTSTARLLLHRGAGKEAM [RIPK4], the protein stability index is, setting by setting: under setting [1], 3.6 ± 0.28; under setting [2], 3.46 ± 0.13.

Take KLEYEEIALDLTPVIEELTNAGFL [FAN1]: the protein stability index under setting [1] worked out at 2.14 ± 0.23 and the protein stability index under setting [2] came to 2.38 ± 0.24.

Sequence PPASARRLSVPRDSACDESSCIPK [IRX6] yielded a protein stability index under setting [1] of 5.33 ± 0.16 and a protein stability index under setting [2] of 5.31 ± 0.14.

KTIKSFFPHSGKDCLLCFPETLPE [C8orf76]: the protein stability index under setting [1] worked out at 2.92 ± 0.26 and the protein stability index under setting [2] was 3.03 ± 0.32.

In turn, LFDNPKLDKELRAMLREKFPEFCS [INTS3] had a protein stability index under setting [1] of 2.03 ± 0.32 and a protein stability index under setting [2] of 2.54 ± 0.31.

Turning to NSKEDAFSGTDWMLEKMDLKEFDL [ATF4], the protein stability index came out at 4.6 ± 0.26 under setting [1] and 4.55 ± 0.2 under setting [2].

With NGHTDVADVLLQAGADLEHESEGG [ANKRD17], the protein stability index is 5.37 ± 0.17 under setting [1] and 5.28 ± 0.048 under setting [2].

Take NELQHDLDVVSDALAKVSRKPSI [TPH1]: the protein stability index stood at 5.17 ± 0.39 under setting [3] and 5.33 ± 0.11 under setting [4].

Take QLLEDAILIIQGVLSDINLKKGES [NET1]: the protein stability index under setting [1] is 3.37 ± 0.24 and the protein stability index under setting [2] was 3.77 ± 0.19.

Take SIARLEMGPDEYEEMEEEEEEEEE [FBXO3]: the protein stability index runs as follows: under setting [1], 5.41 ± 0.26; under setting [2], 5.62 ± 0.28.

Consider CSSCQRSWASAQVQILCHTYWEHW [RTP4], for which the protein stability index runs as follows: under setting [1], 2.3 ± 0.52; under setting [2], 2.36 ± 0.28.

REHRVRRIHVRRHITHDERPHGQQ [KCTD13] gave a protein stability index under setting [1] of 4.36 ± 0.21 and a protein stability index under setting [2] of 4.45 ± 0.29.

On to KGERRREPGGYDSSSTLMSSELET [DVL3], for which the protein stability index turned out to be 5.19 ± 0.19 under setting [1] and 5.15 ± 0.13 under setting [2].

Turning to KLPLQIDCLAAWEEWLLVGTKQGH [VPS39], the protein stability index was found to be 2.43 ± 0.41 under setting [1] and 2.47 ± 0.14 under setting [2].

For the sequence CLGALCENTCLLRGFSGGILAFLV [TSPAN10], the protein stability index stood at 2.34 ± 0.57 under setting [1] and 2.55 ± 0.33 under setting [2].

As to YCLLSDHGCEYSCVNMDRSFACQC [MATN2], the protein stability index is, setting by setting: under setting [1], 2.81 ± 0.54; under setting [2], 2.95 ± 0.59.

As for QLLTLRELEMIGFIENNVSKLSLL [TRIP13], the protein stability index reads like this: under setting [1], 2.51 ± 0.28; under setting [2], 2.66 ± 0.52.

As for DSPENMMRHIRFLKNEVERLKKQL [CCDC6], the protein stability index reads like this: under setting [1], 4.18 ± 0.31; under setting [2], 4.45 ± 0.35.

DTLISQESCEKNDPLSLLDDSKFP [PCDHGA10] showed a protein stability index under setting [1] of 5.05 ± 0.18 and a protein stability index under setting [2] of 4.93 ± 0.2.

Take INCQLSDPSSTKPGTLLKTSPSPE [TRIM14]: the protein stability index runs as follows: under setting [1], 4.79 ± 0.3; under setting [2], 4.88 ± 0.31.

PGAPPGRDLASVPPELTASRQSFR [DVL3]: the protein stability index came out at 4.7 ± 0.23 under setting [1] and 4.84 ± 0.12 under setting [2].

For the origin of these results see the supplement of paper PMC10567573.
